According to patent US6096520A, “Brain glycogen phosphorylase cancer antigen” (Ludwig Institute for Cancer Research, priority 1998, dated 2000):

B1: SEQ ID NO:2: fragment of brain glycogen phosphorylase nucleic acid ending at position 161 (nucleic acid)
DNA: ATGGGCGAACCGCTGACGGACAGCGAGAAGCGGAAGCAGATCAGCGTGCGCGGCCTGGCGGGGCTAGGCGACGTGGCCGAGGTGCGGAAGAGCTTCAACCGG
modifications: chemistry not fully specified
B2: SEQ ID NO:3: fragment of brain glycogen phosphorylase nucleic acid ending at position 140 (nucleic acid)
DNA: ATGGGCGAACCGCTGACGGACAGCGAGAAGCGGAAGCAGATCAGCGTGCGCGGCCTGGCGGGGCTAGGCGACGTGGCCGAG
modifications: chemistry not fully specified
B3: SEQ ID NO:1: shortest exonuclease III fragment of brain glycogen phosphorylase nucleic acid, ending 100 bp after the start codon (nucleic acid)
DNA: ATGGGCGAACCGCTGACGGACAGCGAGAAGCGGAAGCAGATCAGCGTGCGCGGCCTGGCGGGGCTAGGCGACGTGGCCGAGGTGCGGAAGAGCTTCAACCGGCACTTGCA
modifications: chemistry not fully specified
notes: shortest exonuclease III fragment of brain glycogen phosphorylase nucleic acid, ending 100 bp after the start codon

Test system: antigen recognized by CTL 246/76
Test: TNF release from CTL 246/76 provoked by HOB cells transfected with cDNA fragment and HLA-A2
Format: cell-based, human
Details: fragment cotransfected with HLA-A2 into HOB cells
Procedure: The transfection of HOB cells was made in duplicate wells. Briefly, samples of HOB cells were seeded, at 15,000 cells/well into tissue culture flat bottom microwells, in DMEM supplemented with 10% fetal calf serum. The cells were incubated overnight at 37° C., medium was removed and then replaced by 100 μl/well total volume of DMEM medium containing 20% Nu-Serum (Collaborative Research, Bedford, Mass.), 300 μg/ml DEAE-dextran, and 200 μM chloroquine, plus 100 ng of the LB373-MEL cDNA library cloned in pcDNAI/Amp and 50 ng of HLA-A2 cloned in pcDNAI/Amp. Following four hours of incubation at 37° C., the medium was removed, and replaced by 50 μl of PBS containing 10% dimethyl sulfoxide (DMSO). This medium was removed after two minutes and replaced by 200 μl of DMEM supplemented with 10% FCS.
Following this change in medium, HOB cells were incubated for 48 hours at 37° C. The transfectants then were screened with CTL 246/76. After first removing the medium, 2000 CTL 246/76 cells were added to each well in 100 μl of medium containing 25 U/ml IL-2. The amount of TNF present in the supernatant was then measured by testing its cytotoxicity for WEHI 164.13 cells. Most pools gave a TNF concentration below 5 pg/ml. cDNAs from pools which gave higher concentrations in both of the duplicate wells were cloned in bacteria. Their plasmid DNA was extracted and transfected into HOB cells with HLA-A2. The transfectants were screened with CTL 246/76. One cDNA clone gave a high TNF production by CTL 246/76. The cDNA was sequenced, compared with DNA sequence databases and determined to encode brain glycogen phosphorylase.
Fragments of the brain glycogen phosphorylase cDNA were prepared by exonuclease III digestion from the 3' end of the cDNA according to art standard procedures, were cloned into an expression vector and transfected into HOB cells with HLA-A2 as described above. As a positive control, the brain glycogen phosphorylase cDNA was cotransfected with HLA-A2 into HOB cells. These transfectants were used to provoke release of TNF from CTL 246/76 cells.
Shorter fragments were generated by PCR. […]

Row | Molecule | confers expression of the antigen recognized by CTL 246/76
1 | B1 | did confer expression of the antigen
2 | B2 | did not confer expression of the antigen
3 | B3 | able to confer expression of the antigen
